Here are results for one molecule from patent US20260176335A1 (TRUSTEES OF COLUMBIA UNIVERSITY IN THE CITY OF NEW YORK, published 2026).

For assay [1], the target named is T1, human serum amyloid A1 (SAA1) (human, UniProt P0DJI8 19-122).
T1 construct: also called SAA1 antigen; SAA1 protein
T1 sequence (looked up): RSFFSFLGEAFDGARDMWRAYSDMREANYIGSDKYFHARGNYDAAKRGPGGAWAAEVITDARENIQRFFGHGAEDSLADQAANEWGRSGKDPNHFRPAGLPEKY
Briefly: Kd calculated from competitive binding curves (competitive peptide 0.625-80 nM against SAA1 at 150 ng/ml), NFκB-luciferase reporter cell readout. On the procedure: Raw 264.7-NFκB-Luc cells were seeded at a density of 60,000 cells in 40 μl media/well in a 96-well plate. The plate was placed at 37° C. in a 5% CO₂ incubator overnight to allow cells to adhere. 5 μL of SAA1 antigen solution (150 ng/ml) was added to each well. 10 μL of the competitive antigen standard solution was added to the respective wells. 10 μL of the purified antibody (18A3-S1-F) solution was added to each well.
The plate was incubated at 37° C. in a 5% CO₂ incubator for 2 hours to allow binding between the antibody and antigens. 10 μL of the viability dye (i.e., the Cell Titer Fluor reagent; Promega) was added, and the plate was rocked for 5 minutes and incubated at 37° C. in a 5% CO₂ incubator for 30 minutes. Then […] reading was taken with 7-amino-4-trifluoromethyl-coumarin (AFC) (excitation 405 nm/emission […]). After 3 hours, 1:1 Bright Glo Luciferase reagent (Promega) was added, and the plate was rocked for 5 minutes in dark (covered with foil) before the reading was taken.
The dissociation constant (Kd) was calculated from the competitive binding curves (FIG. 4E). The lower the Kd value, the higher the binding affinity of the antibody.

In assay [2] the target is T1, human serum amyloid A1 (SAA1). As to the kind of experiment: cell-based or functional assay.

B1: murine anti-SAA1 18A3 antibody (antibody, V domains shown)
VH: DVQLVESGGGLVQSGGSRKLSCAASGFTFSRFGMHWVRQAPEKGLEWVAYISRGSTKIYYADTVKGRFTISRDNPRNTLFLQMTSLRSEDTAMYYCARSLIYYDYDGFGYWGQGTLVTVSA
VL: DVLMTQTPLSLPLSLGDQASISCRSSQSIVHSNGNTYLEWYLQKPGQSPKLLIYKVSNRFSGVPDRFSGSGSGTDFTLKISRVEAEDLGVYYCFQGSHVPPTFGGGTKLEIK
notes: Murine hybridoma monoclonal antibody; Tested as hybridoma supernatant or as purified antibody from subclone 18A3-S1-F / 18A3-S1; also called 18A3-S1-F; 18A3-S1
As for B1, the Kd in assay [1] was 0.94 to 1.12 nM. Further, the “EC50 (half-maximal inhibition of SAA1-induced NFκβ activation, reporter assay)” value in assay [2] was 2.55 nM.

For orientation: Kd means the concentration at which binding is half-saturated.
